# Literature values in paper PMC9366932.
# Molecular target: Asp309 (UniProt position 309, LIAAPDTMSVS)
substance,measurement,value
"Aromatase (cytochrome P450 19A1), recombinant form referred to as aromatase WT (Homo sapiens)",pKa,8.2
